# Assay results from US12202907B2, “Nucleic acids encoding and methods of producing proteins comprising antibody chains” (Innate Pharma, priority 2018, dated 2025).
# T1: soluble recombinant human CD39 protein (Homo sapiens, UniProt P49961)
# T1 construct: made in house; host or cells: CHO cells
# T1 sequence (P49961 with tags, fused parts or gaps): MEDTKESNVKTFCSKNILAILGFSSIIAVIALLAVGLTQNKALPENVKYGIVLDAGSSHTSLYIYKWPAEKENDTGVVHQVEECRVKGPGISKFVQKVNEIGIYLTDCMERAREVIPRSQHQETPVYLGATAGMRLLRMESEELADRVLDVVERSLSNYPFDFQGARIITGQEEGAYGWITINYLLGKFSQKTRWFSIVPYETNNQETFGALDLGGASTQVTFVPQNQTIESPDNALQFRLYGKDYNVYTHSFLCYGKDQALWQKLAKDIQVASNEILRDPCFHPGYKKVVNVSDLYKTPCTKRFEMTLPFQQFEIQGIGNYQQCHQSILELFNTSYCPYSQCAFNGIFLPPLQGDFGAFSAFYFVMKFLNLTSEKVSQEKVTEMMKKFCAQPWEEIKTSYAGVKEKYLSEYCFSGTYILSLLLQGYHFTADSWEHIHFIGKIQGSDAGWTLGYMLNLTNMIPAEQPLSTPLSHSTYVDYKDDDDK
# T2: CD39 expressed by Ramos human lymphoma cells (Homo sapiens, UniProt P49961)
# T2 construct: cells that endogenously express CD39 at their surface; host or cells: Ramos
# T2 sequence (P49961 1-510): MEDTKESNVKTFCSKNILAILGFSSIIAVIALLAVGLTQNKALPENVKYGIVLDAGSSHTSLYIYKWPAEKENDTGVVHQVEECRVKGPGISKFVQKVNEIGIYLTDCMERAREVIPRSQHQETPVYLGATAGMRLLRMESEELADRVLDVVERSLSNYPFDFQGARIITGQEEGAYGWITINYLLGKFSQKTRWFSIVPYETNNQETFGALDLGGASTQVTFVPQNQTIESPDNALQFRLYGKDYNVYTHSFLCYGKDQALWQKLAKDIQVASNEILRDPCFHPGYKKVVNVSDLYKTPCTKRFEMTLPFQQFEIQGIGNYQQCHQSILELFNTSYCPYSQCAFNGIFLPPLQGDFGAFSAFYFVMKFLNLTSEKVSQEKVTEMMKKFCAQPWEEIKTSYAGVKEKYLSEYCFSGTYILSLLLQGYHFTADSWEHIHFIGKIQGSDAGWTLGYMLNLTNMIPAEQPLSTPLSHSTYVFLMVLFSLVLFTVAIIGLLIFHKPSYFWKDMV
# T3: membrane-bound CD39 in Mino tumor cells (Homo sapiens, UniProt P49961)
# T3 construct: endogenous in cells; host or cells: Mino
# T3 sequence (P49961 1-510): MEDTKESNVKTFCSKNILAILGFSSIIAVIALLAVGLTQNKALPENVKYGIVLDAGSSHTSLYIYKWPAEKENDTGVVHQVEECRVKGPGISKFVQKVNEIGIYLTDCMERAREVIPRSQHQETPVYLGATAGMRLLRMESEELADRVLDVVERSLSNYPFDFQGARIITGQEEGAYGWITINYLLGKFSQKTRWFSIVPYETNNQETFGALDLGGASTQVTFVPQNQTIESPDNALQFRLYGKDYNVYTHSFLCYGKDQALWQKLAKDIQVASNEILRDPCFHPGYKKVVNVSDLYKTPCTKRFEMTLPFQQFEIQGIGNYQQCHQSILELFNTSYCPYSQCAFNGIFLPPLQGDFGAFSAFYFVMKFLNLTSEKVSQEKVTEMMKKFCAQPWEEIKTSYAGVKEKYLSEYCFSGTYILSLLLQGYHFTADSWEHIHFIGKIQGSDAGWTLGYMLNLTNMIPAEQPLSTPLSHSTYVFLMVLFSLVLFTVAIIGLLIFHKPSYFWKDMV
# T4: human Ramos lymphoma cells (CD39) (Homo sapiens, UniProt P49961)
# T4 construct: cells that endogenously express CD39 at their surface; host or cells: Ramos
# T4 sequence (P49961 1-510): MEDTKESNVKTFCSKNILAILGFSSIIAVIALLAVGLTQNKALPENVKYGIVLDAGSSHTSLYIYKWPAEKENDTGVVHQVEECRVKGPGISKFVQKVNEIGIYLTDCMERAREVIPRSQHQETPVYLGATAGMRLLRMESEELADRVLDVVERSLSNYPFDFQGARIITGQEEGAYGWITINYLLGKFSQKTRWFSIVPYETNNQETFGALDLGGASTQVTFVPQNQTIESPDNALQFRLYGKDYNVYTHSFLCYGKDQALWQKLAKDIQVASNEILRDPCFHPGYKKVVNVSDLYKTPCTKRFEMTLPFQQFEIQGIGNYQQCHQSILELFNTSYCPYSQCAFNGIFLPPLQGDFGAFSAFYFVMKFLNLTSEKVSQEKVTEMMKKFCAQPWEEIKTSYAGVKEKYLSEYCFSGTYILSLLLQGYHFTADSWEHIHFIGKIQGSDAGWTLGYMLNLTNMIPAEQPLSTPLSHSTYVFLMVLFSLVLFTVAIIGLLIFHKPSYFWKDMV
# Columns and labels:
# [1] = molecular target: T1, soluble recombinant human CD39 protein; assay: Inhibition of the enzymatic activity of soluble CD39 (Cell Titer Glo, cell-free); type: biochemical; details: humanized variants
# Procedure: (§1) The inhibition by antibodies of the enzymatic activity of soluble CD39 protein produced was evaluated using Cell Titer GIo™ (Promega, reference G7571) that allows assessment of ATP hydrolysis through use of a reagent that generates a luminescent signal proportional to the amount of ATP present. In this way, inhibition of the soluble-CD39-meidated ATP hydrolysis can be assessed. Briefly, dose ranges of anti-CD39 antibodies from 100 μg/ml to […] were incubated with 400 ng/ml of soluble recombinant human CD39 protein having the amino acid sequence described in the Methods section (SEQ ID NO: 44), for 1 h at 37° C. 20 μM ATP was added to the plates for 30 additional minutes at 37° C. before addition of CTG (Cell Titer Glo) reagent. Emitted light was quantified using an Enspire™ luminometer after a short incubation period of 5 min in the dark. Anti-CD39 antibody efficacy was determined by comparing emitted light in presence of antibody with ATP alone (maximal light emission) and ATP together with soluble CD39 protein (minimal light emission).
# [2] = molecular target: T2, CD39 expressed by Ramos human lymphoma cells; assay: Inhibition of the enzymatic activity of cellular CD39 in Ramos cells; type: cell-based; details: Ramos cells
# Procedure: (§2) The inhibition of the CD39 enzymatic activity in CD39-expressing cells by antibodies was evaluated using Cell Titer GIo™ (Promega, reference G7571) that allows assessment of ATP hydrolysis through use of a reagent that generates a luminescent signal proportional to the amount of ATP present. The assay was thus designed to permit assessment of the inhibition of ATP hydrolyzed by CD39 in the cell culture supernatant. Briefly, 5×10^4 Ramos human lymphoma cells, 5×10^3 human CD39−, cynomolgus CD39—and mouse CD39− expressing CHO cells, were incubated 1 hour at 37° C. with anti-CD39 antibodies from 30 μg/ml to 5×10^−4 μg/ml. Cells were then incubated with 20 μM ATP for 1 additional hour at 37° C. Plates were centrifuged for 2 min at 400 g and 50 μl cell supernatant are transferred in a luminescence microplate (white wells). 50 μl CellTiter-Glo™ Reagent (CTG) was added to the supernatant and emitted light was quantified after a 5 min incubation in the dark using a Enspire™ luminometer. Anti-CD39 antibody efficacy was determined by comparing emitted light in presence of antibody with ATP alone (maximal light emission) and ATP together with cells (minimal light emission).
# [3] = molecular target: T3, membrane-bound CD39 in Mino tumor cells; assay: Inhibition of the enzymatic activity of cellular CD39 in Mino cells; type: cell-based
# Procedure: as §2
# Antibodies were tested for potency in inhibition of ATPase activity in cell lines that express membrane-bound CD39. […]
# [4] = molecular target: T4, human Ramos lymphoma cells (CD39); assay: Antibody titration on Ramos cells by flow cytometry; type: binding; details: comparison
# Procedure: Antibody I-394 was tested in two repeated experiments for binding to CHO cells expressing human CD39, CHO cells expressing cynomolgus (Macaca fascicularis) CD39, CHO cells expressing murine CD39, and human Ramos lymphoma cells (ATCC™, reference CRL-1596). Cells were incubated with various concentration of unlabeled anti-CD39 antibody from 30 μg/ml to 5×10^−4 μg/ml, for 30 minutes at 4° C. After washes, cells were incubated with Goat anti-mouse H+L labeled secondary antibody for 30 min at 4° C.
# [5] = tested on: soluble CD39 protein released in cell culture supernatant from CHO cells expressing human CD39; assay: Inhibition of ATPase activity of soluble CD39 released in CHO-huCD39 culture supernatant; type: biochemical; details: humanized variants
# Procedure: as §1
# Antibodies were tested for capacity to inhibit the ATPase activity of soluble CD39 protein using the assays used for inhibition of the enzymatic activity of soluble CD39 as described above (Methods). […]
# [6] = Stability in reference formulation (storage, freeze thaw); type: physicochemical; details: about 7 mg/mL, pH 6.0 histidine/sucrose/NaCl/PS80, +5° C. and +40° C., up to 1 month
# Procedure: (§3) Antibodies mAb1-24 and prior art anti-CD39 antibody BY40, all produced as human IgG1 isotypes with L234A/L235E/G237A/A330S/P331S substitutions were tested for stability in the following reference formulation at a concentration of approximatively 7 mg/mL: pH 6.0; histidine buffer (10 mM); sucrose (200 mM); NaCl (50 mM); Polysorbate 80 (PS80) (0.2 g/L). The stability of the formulations was monitored in two storage conditions (at +5° C.±3° C. and at +40±3° C. For each study, 3 time points were performed: T0, T15D (15 days) and T1M (1 month). A freeze thaw (F/T) and a thermal shift stability assay (TSSA) were conducted for the format comparison. To perform F/T cycles, the samples were frozen at least 2 hours at −20° C. and thawed at least 1 hour at room temperature, the F/T cycle is repeated three times and samples are tested 24 h after the last Freeze/Thaw cycle. At each time point, the following tests were performed: • Particulate Matter (MFI) • Visual Inspection (Appearance) • Impurities (SE-HPLC) • Turbidity (400 nm) • Protein Concentration (280 nm) (performed with Nanodrop, Thermo Fisher Scientific Inc.)
# [7] = Aggregation temperature (thermal shift stability assay); type: physicochemical; details: human IgG1 with L234A/L235E/G237A/A330S/P331S
# Procedure: as §3
Molecule,potency for inhibition of soluble CD39 relative to parental I-394 [1],potency at blocking CD39 enzymatic activity relative to other antibodies [2],potency at blocking CD39 enzymatic activity relative to other antibodies [3],binding to Ramos cells relative to I-394 [4],"potency relative to parental I-394, soluble CD39 in CHO-huCD39 supernatant [5]",physicochemical stability [6],Aggregation temperature (TAgg) [7] [°C]
"mAb20: humanized I-394 variant, VH H4 (SEQ ID NO: 31), VL L1 (SEQ ID NO: 36); heavy chain SEQ ID NO: 38, light chain SEQ ID NO: 39 (antibody) heavy: QVQLVQSGAEVKKPGASVKVSCKASGYTFTDYNMHWVRQAPGQRLEWIGYIVPLNGGSTFNQKFKGRATITVDTSARTAYMELSSLRSEDTAVYYCARGGTRFAYWGQGTLVTVSSASTKGPSVFPLAPSSKSTSGGTAALGCLVKDYFPEPVTVSWNSGALTSGVHTFPAVLQSSGLYSLSSVVTVPSSSLGTQTYICNVNHKPSNTKVDKRVEPKSCDKTHTCPPCPAPEAEGAPSVFLFPPKPKDTLMISRTPEVTCVVVDVSHEDPEVKFNWYVDGVEVHNAKTKPREEQYNSTYRVVSVLTVLHQDWLNGKEYKCKVSNKALPSSIEKTISKAKGQPREPQVYTLPPSREEMTKNQVSLTCLVKGFYPSDIAVEWESNGQPENNYKTTPPVLDSDGSFFLYSKLTVDKSRWQQGNVFSCSVMHEALHNHYTQKSLSLSPGK light: DIVMTQSPDSLAVSLGERATINCRASESVDNFGVSFMYWFQQKPGQPPKLLIYGASNQGSGVPDRFSGSGSGTDFTLTISSLQAEDVAVYYCQQTKEVPYTFGGGTKVEIKRTVAAPSVFIFPPSDEQLKSGTASVVCLLNNFYPREAKVQWKVDNALQSGNSQESVTEQDSKDSTYSLSSTLTLSKADYEKHKVYACEVTHQGLSSPVTKSFNRGEC",comparable to the parental I-394 antibody,more potent at blocking CD39 enzymatic activity compared to all other antibodies,more potent at blocking CD39 enzymatic activity compared to all other antibodies,best binding,comparable to the parental I-394 antibody,good physicochemical stability,~70
"mAb21: humanized I-394 variant, VH H4 (SEQ ID NO: 31), VL L1* (SEQ ID NO: 37); heavy chain SEQ ID NO: 38, light chain SEQ ID NO: 40 (antibody) heavy: QVQLVQSGAEVKKPGASVKVSCKASGYTFTDYNMHWVRQAPGQRLEWIGYIVPLNGGSTFNQKFKGRATITVDTSARTAYMELSSLRSEDTAVYYCARGGTRFAYWGQGTLVTVSSASTKGPSVFPLAPSSKSTSGGTAALGCLVKDYFPEPVTVSWNSGALTSGVHTFPAVLQSSGLYSLSSVVTVPSSSLGTQTYICNVNHKPSNTKVDKRVEPKSCDKTHTCPPCPAPEAEGAPSVFLFPPKPKDTLMISRTPEVTCVVVDVSHEDPEVKFNWYVDGVEVHNAKTKPREEQYNSTYRVVSVLTVLHQDWLNGKEYKCKVSNKALPSSIEKTISKAKGQPREPQVYTLPPSREEMTKNQVSLTCLVKGFYPSDIAVEWESNGQPENNYKTTPPVLDSDGSFFLYSKLTVDKSRWQQGNVFSCSVMHEALHNHYTQKSLSLSPGK light: DIVMTQSPDSLAVSLGERATINCKASESVDNFGVSFMYWFQQKPGQPPKLLIYGASNQGSGVPDRFSGSGSGTDFTLTISSLQAEDVAVYYCQQTKEVPYTFGGGTKVEIKRTVAAPSVFIFPPSDEQLKSGTASVVCLLNNFYPREAKVQWKVDNALQSGNSQESVTEQDSKDSTYSLSSTLTLSKADYEKHKVYACEVTHQGLSSPVTKSFNRGEC",comparable to the parental I-394 antibody,more potent at blocking CD39 enzymatic activity compared to all other antibodies,more potent at blocking CD39 enzymatic activity compared to all other antibodies,best binding,comparable to the parental I-394 antibody,good physicochemical stability,~70
